{
  "source": "paper PMC10861912",
  "about": "“Viral afterlife: SARS-CoV-2 as a reservoir of immunomimetic peptides that reassemble into proinflammatory supramolecular complexes” (Proceedings of the National Academy of Sciences of the …, 2024)",
  "assay": "Linear charge density of the peptide",
  "format": "physicochemical",
  "data": [
    {"substance": "LL-37: highly cationic human cathelicidin, host antimicrobial peptide", "values": [
      {"measurement": "linear charge density", "result": "~ +1.1 e/nm"}
    ]}
  ]
}
